The values that follow come from US20190127480A1 (Regeneron, published 2019).

To fix the notation:
T1: soluble heterodimeric hCD3ε/δ.mFc protein (human)
T1 construct: also called soluble human CD3; soluble heterodimeric CD3 protein
T1 chain 1: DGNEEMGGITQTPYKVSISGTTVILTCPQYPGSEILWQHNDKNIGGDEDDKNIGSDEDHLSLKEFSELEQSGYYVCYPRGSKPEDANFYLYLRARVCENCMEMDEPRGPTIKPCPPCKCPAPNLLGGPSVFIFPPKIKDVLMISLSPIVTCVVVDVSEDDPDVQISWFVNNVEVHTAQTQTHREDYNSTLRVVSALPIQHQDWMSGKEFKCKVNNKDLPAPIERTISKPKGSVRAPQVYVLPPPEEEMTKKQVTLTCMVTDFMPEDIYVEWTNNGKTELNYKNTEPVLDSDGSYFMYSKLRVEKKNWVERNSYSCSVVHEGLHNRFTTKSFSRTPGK
T1 chain 2: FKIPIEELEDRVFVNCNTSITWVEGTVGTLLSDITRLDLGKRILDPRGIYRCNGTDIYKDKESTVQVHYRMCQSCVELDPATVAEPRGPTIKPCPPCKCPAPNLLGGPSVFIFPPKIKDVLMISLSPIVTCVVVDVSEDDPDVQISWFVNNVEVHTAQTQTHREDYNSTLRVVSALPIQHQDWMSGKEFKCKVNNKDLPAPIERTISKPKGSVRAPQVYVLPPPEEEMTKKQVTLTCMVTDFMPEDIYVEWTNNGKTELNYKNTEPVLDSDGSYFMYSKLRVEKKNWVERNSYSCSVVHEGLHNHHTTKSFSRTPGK

B1: BSPSMA/CD3-004 (bispecific antibody, IgG4, V domains shown)
VH 1: QVQLVESGGGVVQPGRSLRLSCAASGFTFSSYGMHWVRQAPGKGLEWVAVISYAGNNKYYADSVKGRFTVSRDNSKKTLYLQMNSLRSEDTAVYYCAKDSYYDFLTDPDVLDIWGQGTMVTVSS
VH 2: EVQLVESGGGLVQPGRSLRLSCAASGFTFDDYSMHWVRQAPGKGLEWVSGISWNSGSIGYADSVKGRFTISRDNAKNSLYLQMNSLRAEDTALYYCAKDGSGYGKFYYYGMDVWGQGTTVTVSS
VL: DIQMTQSPSSLSASVGDSVTITCRASQSINNYLNWYQQKPGKAPKLLIYTASSLLSGVPSRFSGSGSGTDFTLTISGLHPEDFATYFCQQSFSTPPITFGQGTRLDIK
notes: modified (chimeric) IgG4 Fc domain; also called PSMA-VH-11810 x CD3-VH-G5
B2: BSPSMA/CD3-800 (bispecific antibody, IgG4, V domains shown)
VH 1: B1 VH 1
VH 2: B1 VH 2 with D99Y, Y108H, M111L
VL: B1 VL
notes: modified (chimeric) IgG4 Fc domain; also called PSMA-VH-11810 x CD3-VH-G8
B3: BSPSMA/CD3-400 (bispecific antibody, IgG4, V domains shown)
VH 1: B1 VH 1
VH 2: B1 VH 2 with S33A
VL: B1 VL
notes: modified (chimeric) IgG4 Fc domain; also called PSMA-VH-11810 x CD3-VH-G4
B4: BSPSMA/CD3-1800 (bispecific antibody, IgG4, V domains shown)
VH 1: B1 VH 1
VH 2: B1 VH 2 with M111L
VL: B1 VL
notes: modified (chimeric) IgG4 Fc domain; also called PSMA-VH-11810 x CD3-VH-G18
B5: BSPSMA/CD3-1100 (bispecific antibody, IgG4, V domains shown)
VH 1: B1 VH 1
VH 2: B1 VH 2 with I58K, D99Y, Y108H
VL: B1 VL
notes: modified (chimeric) IgG4 Fc domain; also called PSMA-VH-11810 x CD3-VH-G11
B6: BSPSMA/CD3-200 (bispecific antibody, IgG4, V domains shown)
VH 1: B1 VH 1
VH 2: B1 VH 2 with S33A, K105Y
VL: B1 VL
notes: modified (chimeric) IgG4 Fc domain; also called PSMA-VH-11810 x CD3-VH-G2
B7: BSPSMA/CD3-1300 (bispecific antibody, IgG4, V domains shown)
VH 1: B1 VH 1
VH 2: B1 VH 2 with D99Y, M111L
VL: B1 VL
notes: modified (chimeric) IgG4 Fc domain; also called PSMA-VH-11810 x CD3-VH-G13
B8: BSPSMA/CD3-300 (bispecific antibody, IgG4, V domains shown)
VH 1: B1 VH 1
VH 2: B1 VH 2 with K105Y
VL: B1 VL
notes: modified (chimeric) IgG4 Fc domain; also called PSMA-VH-11810 x CD3-VH-G3
B9: BSPSMA/CD3-1700 (bispecific antibody, IgG4, V domains shown)
VH 1: B1 VH 1
VH 2: B1 VH 2 with I58K, D99Y
VL: B1 VL
notes: modified (chimeric) IgG4 Fc domain; also called PSMA-VH-11810 x CD3-VH-G17
B10: H1M11900N (antibody, mouse IgG1, V domains shown)
VH: EVQLVESGGALVQTGGSLRLSCVASGFTFSNYWMSWVRQSPGKGLQWVASIKKDGSDEDYVDSVKGRFTISRDNAENSLYLQMTSLRIEDTAVYYCARFISAVGVDWGQGALVTVSS
VL: B1 VL
notes: human variable / mouse constant region (H1M: mouse IgG1 Fc)

Changes are numbered by the printed parent chain. Numbers in names are those of the source.

One experiment addresses T2, human CD3 on CD3-expressing cells (Jurkat, human T cells) (human, UniProt P07766 23-207; P04234 22-171).
T2 construct: On cells CD3 stands within the T cell receptor complex (also gamma and zeta chains); also called human CD3 expressing Jurkat cells
The experiment can be described thus: FACS on Jurkat cells. How it is done:
(§1) Briefly, 2×10⁵ cells/well of human CD3-expressing Jurkat, cynomolgus T, or human PSMA-specific expressing cells were incubated with a serial dilution of bispecific antibodies for 30 min at 4° C. After incubation, cells were washed and a goat F(ab′)₂ anti-human Fcγ PE labeled secondary (Jackson Immunolabs) was added to the cells for an additional 30 min. Next, cells were washed, re-suspended in cold PBS+1% BSA and analyzed via flow cytometry on a BD FACS Canto II.
(§2) For FACS analysis, cells were gated by forward scatter height vs. forward scatter area for single events selection, followed by side and forward scatters. The EC₅₀ for cell binding titration was determined using Prism software. Values were calculated using 4-parameter non-linear regression analysis.
B1: the EC50 was about 1000 nM.

With B2, the EC50 turned out to be 19.3 nM.

B3: the binding result is given as “no binding”.

Turning to B4, it took 126 nM to reach a half-maximal effect (EC50).

For B5, the EC50 was 18.3 nM.

For the molecule B6, the binding result was “no binding”.

The molecule B7 yielded an EC50 of 102 nM.

As to B8, the binding result is given as “no binding”.

With B9, the EC50 turned out to be 200 nM.

A further experiment deals with T3, human PSMA on PSMA-expressing cells (human, UniProt Q04609 1-750). In words: cell-based or functional assay.
T3 sequence (Q04609 whole entry): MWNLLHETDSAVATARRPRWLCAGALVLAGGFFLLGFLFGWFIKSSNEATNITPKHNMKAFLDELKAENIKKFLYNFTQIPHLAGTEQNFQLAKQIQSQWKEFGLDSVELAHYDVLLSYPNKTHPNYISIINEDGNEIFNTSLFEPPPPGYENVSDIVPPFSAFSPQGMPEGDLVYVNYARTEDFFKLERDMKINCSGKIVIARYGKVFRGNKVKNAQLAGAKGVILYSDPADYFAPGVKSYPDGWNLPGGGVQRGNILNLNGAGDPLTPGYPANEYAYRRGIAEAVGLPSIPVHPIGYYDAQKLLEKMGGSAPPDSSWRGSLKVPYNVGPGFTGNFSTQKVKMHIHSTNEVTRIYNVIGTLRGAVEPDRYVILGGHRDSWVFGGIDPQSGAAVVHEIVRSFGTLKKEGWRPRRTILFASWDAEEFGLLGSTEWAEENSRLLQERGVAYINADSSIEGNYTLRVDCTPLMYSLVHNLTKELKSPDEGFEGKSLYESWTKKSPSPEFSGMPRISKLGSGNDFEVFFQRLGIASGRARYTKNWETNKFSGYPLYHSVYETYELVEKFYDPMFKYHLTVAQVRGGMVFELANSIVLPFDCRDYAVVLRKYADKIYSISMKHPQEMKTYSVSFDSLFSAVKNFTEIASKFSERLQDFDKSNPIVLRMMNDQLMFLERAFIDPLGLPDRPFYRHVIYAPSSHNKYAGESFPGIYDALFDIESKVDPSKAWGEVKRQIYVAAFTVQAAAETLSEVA
B1: the “22RV1 Cell depletion EC50” value is 6.31 pM, the “C4-2 Cell depletion EC50” value came to 21.5 pM and the “TrampC2.PSMA Cell depletion EC50” value was 11.5 pM.

Regarding B2, the “TrampC2.PSMA Cell depletion EC50” value came to 9.27 pM.

B5: the “TrampC2.PSMA Cell depletion EC50” value was 3.86 pM.

As to B7, the “C4-2 Cell depletion EC50” value came out at 8.74 pM.

On to B9, for which the “22RV1 Cell depletion EC50” value came to 2.07 pM and the “C4-2 Cell depletion EC50” value was found to be 7.37 pM.

A further experiment concerns the target T2, human CD3 on CD3-expressing cells …. The experiment can be described thus: cell-based or functional assay.
Target sequence in this assay (P07766 23-207 limits assumed, chain 1 of 2): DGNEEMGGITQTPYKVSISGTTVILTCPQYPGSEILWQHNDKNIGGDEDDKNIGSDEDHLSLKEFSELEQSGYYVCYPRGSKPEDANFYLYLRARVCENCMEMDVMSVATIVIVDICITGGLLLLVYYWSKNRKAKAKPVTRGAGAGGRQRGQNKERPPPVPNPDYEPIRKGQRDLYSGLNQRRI
Target sequence in this assay (P04234 22-171 limits assumed, chain 2 of 2): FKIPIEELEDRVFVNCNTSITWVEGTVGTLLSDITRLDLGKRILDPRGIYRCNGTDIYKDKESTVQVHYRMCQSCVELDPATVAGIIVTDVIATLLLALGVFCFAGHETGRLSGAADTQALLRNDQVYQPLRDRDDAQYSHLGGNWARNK
Take B1: the “T cell activation EC50” value was found to be 13.4 pM.

On to B2, for which the “T cell activation EC50” value stood at 1.76 pM.

As to B5, the “T cell activation EC50” value turned out to be 1.11 pM.

As for B7, the “T cell activation EC50” value came to 2.31 pM.

With B8, the “T cell activation EC50” value was determined as 18.5 pM.

For the molecule B9, the “T cell activation EC50” value is 3.89 pM.

Another experiment deals with T4, cynomolgus CD3 on cynomolgus T cells (cynomolgus, UniProt Q95LI5 22-198; Q95LI8 22-171).
T4 construct: whole, on cells; also called Cyno T-cells; monkey T-cells
T4 sequence (Q95LI5 22-198, form in doubt, chain 1 of 2): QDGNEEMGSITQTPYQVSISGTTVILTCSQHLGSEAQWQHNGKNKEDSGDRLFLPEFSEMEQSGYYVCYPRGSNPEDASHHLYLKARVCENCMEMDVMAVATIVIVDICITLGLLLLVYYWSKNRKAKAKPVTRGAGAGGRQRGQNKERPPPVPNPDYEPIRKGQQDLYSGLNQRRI
T4 sequence (Q95LI8 22-171, form in doubt, chain 2 of 2): as the sequence (P04234 22-171 limits assumed, chain 2 of 2) above, with I5V, N15K, I20V, S32T, D33N, I34N, T64A, S74N, V83L, H141R counted along it
The experiment can be described thus: FACS on cynomolgus T cells. The method, then: as §1, §2
As for B2, the EC50 was 19.6 nM.

On to B5, for which the 50% effective concentration (EC50) came out at 890 nM.

For B7, a half-maximal effect (EC50) was put at 2170 nM.

B9 returned an EC50 of 3350 nM.

A further experiment deals with T3, human PSMA on PSMA-expressing cells. In words: FACS on B16F10.9/PSMA cells. The method, then: as §1, §2
For the molecule B1, the EC50 was found to be 1.31 nM.

As to B2, the response was half-maximal at 1.31 nM (EC50).

In turn, B3 yielded an EC50 of 1.72 nM.

Molecule B4 yielded an EC50 of 2.16 nM.

Consider B5, for which the response was half-maximal at 1.03 nM (EC50).

Turning to B6, a half-maximal response (EC50) required 1.88 nM.

B7 came in with an EC50 of 1.25 nM.

In turn, B8 came in with an EC50 of 1.9 nM.

On to B9, for which the EC50 amounted to 1.34 nM.

The next experiment addresses T1, soluble heterodimeric hCD3ε/δ.mFc …. In words: SPR MASS-1, 37 C, antigen-capture format. The method, then: (§3) Measurements were conducted on a Sierra Sensors MASS-1 instrument.
(§4) In the antigen-capture format, the MASS-1 high-density amine sensor surface was derivatized with a goat anti-mouse IgG2a polyclonal antibody (Southern Biotech). Soluble heterodimeric CD3 protein was captured and the respective antibodies were injected over the captured antigen.
(§5) Kinetic association (kₐ) and dissociation (kd) rate constants were determined by processing and fitting the data to a 1:1 binding model using MASS-1 AnalyserR2 curve fitting software. Binding dissociation equilibrium constants (KD) and dissociative half-lives (t_{1/2}) were calculated from the kinetic rate constants as: KD (M)=kd/kₐ; and t_{1/2} (min)=(ln 2/(60*kd).
For B1, the binding result is “no binding”.

As to B3, the binding result is “no binding”.

B4: the binding result is reported as “no binding”.

In the case of B6, the binding result is given as “no binding”.

As for B8, the binding result is “no binding”.

A further experiment shares this target. In words: SPR MASS-1, 37 C, antigen-capture (hCD3ε/δ.mFc captured), antibody injected. The method, then:
as §3, §4, §5
On to B2, for which binding was put at a Kd of 19.4 nM, the “T½” value is 10 min, the koff worked out at 0.00115 s⁻¹ and the association rate constant (kon) stood at 59500 M⁻¹ s⁻¹.

Consider B5, for which the dissociation constant Kd was determined as 11.1 nM, the “T½” value stood at 11.3 min, the koff turned out to be 0.00102 s⁻¹ and the kon turned out to be 92100 M⁻¹ s⁻¹.

For the molecule B7, the Kd worked out at 122 nM, the “T½” value is 4.7 min, the koff came out at 0.00248 s⁻¹ and the kon was 20300 M⁻¹ s⁻¹.

As to B9, the Kd came to 65.2 nM, the “T½” value is 3.8 min, the koff came to 0.00307 s⁻¹ and the kon amounted to 47000 M⁻¹ s⁻¹.

A further experiment deals with T5, human PSMA expressed with an N-terminal hexahistidine tag (6h.hPSMA, R&D) (human, UniProt Q04609 44-750).
T5 construct: Bought soluble protein; also called soluble human PSMA; human PSMA protein
T5 sequence (Q04609 other isoform, or with tags, fused parts or gaps limits assumed): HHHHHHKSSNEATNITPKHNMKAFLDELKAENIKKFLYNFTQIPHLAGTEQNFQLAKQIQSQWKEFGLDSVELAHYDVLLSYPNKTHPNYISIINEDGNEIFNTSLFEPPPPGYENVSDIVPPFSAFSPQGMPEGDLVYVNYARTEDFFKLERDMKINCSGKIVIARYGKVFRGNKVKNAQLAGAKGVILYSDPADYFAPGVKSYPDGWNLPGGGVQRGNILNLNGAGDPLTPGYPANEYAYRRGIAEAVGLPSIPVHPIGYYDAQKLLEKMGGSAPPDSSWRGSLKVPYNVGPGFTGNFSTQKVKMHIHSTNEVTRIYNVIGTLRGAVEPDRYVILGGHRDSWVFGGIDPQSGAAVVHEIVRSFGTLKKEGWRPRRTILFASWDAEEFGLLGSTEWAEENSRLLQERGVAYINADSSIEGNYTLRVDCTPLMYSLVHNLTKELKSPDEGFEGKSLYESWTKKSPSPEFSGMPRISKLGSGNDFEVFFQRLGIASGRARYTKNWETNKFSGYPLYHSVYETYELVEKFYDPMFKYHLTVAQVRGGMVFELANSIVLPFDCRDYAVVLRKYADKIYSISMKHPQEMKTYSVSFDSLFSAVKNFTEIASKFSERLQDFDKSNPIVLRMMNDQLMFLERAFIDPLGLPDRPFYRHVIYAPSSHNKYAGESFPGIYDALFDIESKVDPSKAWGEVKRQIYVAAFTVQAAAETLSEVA
The experiment can be described thus: SPR Biacore T-200, 37 C, antibody-capture (anti-mouse Fc), 6h.hPSMA as analyte. How it is done:
Briefly, a CM5 Biacore™ sensor surface was derivatized via amine coupling with a monoclonal mouse anti-human Fc antibody (GE, # BR-1008-39) or monoclonal goat anti-mouse Fc antibody (GE, # BR-1008-38) to capture purified anti-PSMA antibodies. Binding studies were performed in HBSP++ buffer composed of 0.01M HEPES, 0.15M NaCl, 2 mM Ca²⁺, 2 mM Mg²⁺, 0.05% v/v Surfactant P20, pH7.4. Varying concentrations of human PSMA expressed with an N-terminal hexahistidine tag (6h.hPSMA, R&D) prepared in HBSP++ running buffer (ranging from 50 to 0.78 nM, 4-fold dilutions) were injected over the anti-PSMA antibody captured surface at a flow rate of 30 μL/minute. Antibody-reagent association was monitored for 2 minutes while dissociation in HBSP++ running buffer was monitored for 8 minutes.
Kinetic association (kₐ) and dissociation (kd) rate constants were determined by fitting the real-time sensorgrams to a 1:1 binding model using Scrubber 2.0c curve fitting software. Binding dissociation equilibrium constants (KD) and dissociative half-lives (t½) were calculated from the kinetic rate constants as: KD (M)=kd/kₐ; and t_{1/2} (min)=(ln 2/(60*kd).
(SPR reads the build-up and loss of mass on a sensor chip optically.)
For the molecule B10, binding was put at a Kd of 25.8 nM, the koff worked out at 0.00406 s⁻¹, the kon is 157000 M⁻¹ s⁻¹ and the “t1/2” value worked out at 2.8 min.

As usually defined, the EC50 is the concentration giving half of the maximal effect. Higher therefore signals a need for much substance. By Kd is commonly meant the concentration at which binding is half-saturated. A higher Kd goes with weaker binding. The koff is the rate constant with which the complex falls apart. Higher therefore signals a short-lived complex. The kon is the rate constant with which the complex forms. Lower therefore signals slow association.
